Test results taken from US20040123349A1 (published 2004).
One block for each molecule: values may come before it.

Experiments:
[1] = system: T1, MBP-SINAT5
T1 sequence: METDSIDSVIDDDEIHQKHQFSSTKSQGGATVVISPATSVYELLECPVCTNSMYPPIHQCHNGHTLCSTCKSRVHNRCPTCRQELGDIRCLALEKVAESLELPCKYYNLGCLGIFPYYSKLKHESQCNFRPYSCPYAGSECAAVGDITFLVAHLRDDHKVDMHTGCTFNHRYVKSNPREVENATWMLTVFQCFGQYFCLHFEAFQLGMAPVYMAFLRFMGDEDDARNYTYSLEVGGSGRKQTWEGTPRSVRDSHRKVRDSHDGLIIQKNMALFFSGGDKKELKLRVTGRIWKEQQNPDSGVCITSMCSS

[2] = target: T2, Myc-NAC1, Q84TE6
T2 chain: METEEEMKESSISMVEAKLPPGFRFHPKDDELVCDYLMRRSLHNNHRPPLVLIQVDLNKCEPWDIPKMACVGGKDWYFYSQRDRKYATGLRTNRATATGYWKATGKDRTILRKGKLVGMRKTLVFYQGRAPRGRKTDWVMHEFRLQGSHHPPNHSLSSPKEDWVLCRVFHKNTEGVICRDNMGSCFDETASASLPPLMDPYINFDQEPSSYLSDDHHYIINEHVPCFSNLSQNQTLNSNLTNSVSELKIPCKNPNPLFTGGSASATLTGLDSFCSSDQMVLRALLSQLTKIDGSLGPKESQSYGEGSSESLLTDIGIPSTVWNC

[3] = target: T3, Myc-NAC1 (Arabidopsis, UniProt Q84TE6 1-324); assay: immunoprecipitation with anti-Myc from roots of double transgenic plants, Western blot with anti-SINAT5
T3 construct: Product of the 35S-6xMyc-NAC1 transgene in Arabidopsis thaliana; immunoprecipitated with anti-Myc antibody; also called 6xMyc-NAC1; Myc-tagged NAC1; not shown: 6xMyc tag
T3 sequence (looked up): T2 chain
Experimental: Western and Northern blot analyses. Antibody to SINAT5 was raised in rabbits using as an antigen the synthetic […] peptide […] (SEQ ID NO:5) corresponding to amino acid residues 3 to 18 of SINAT5 polypeptide (SEQ ID NO:1). Antibodies to c-Myc (SC40 and SC40-AC) and actin (SC1616) from Santa Cruz Biotechnology were used for immunoprecipitation and/or Western blotting. Each lane contained 10 or 20 μg protein. RNA extraction was performed by RNeasyR Plant Mini kit (Qiagene). Northern blot analysis was described previously²⁰, using as probes a NAC1 cDNA fragment encoding the NAC1 C-terminal region (amino acid 200 to 324) and a SINAT5-specific EcoRI-NdeI fragment. The 18S rRNA was used as a loading control. Each lane contained 10 μg RNA.
SINAT5 affect on expression of NAC1 in roots. Referring now to FIG. 4, there is shown the relationship between SINAT5 and NAC1 expression levels in transgenic plants. […] Root cultures from a myc-NAC1 transgenic line were treated with 50 μM of proteasome inhibitor MG 132 (+) or DMSO (−) for 3 hr. Protein extracts were processed for Western blot analysis. […] Myc-tagged proteins from roots of double transgenic plants were immunoprecipitated with antibodies specific for Myc and processed for Western blot analysis with antibodies specific for SINAT5. […] Total RNAs from the same transgenic lines were analyzed by Northern blot. […]

Molecule: MBP-SINAT5 (C49S) mutant
self-ubiquitylation activity (E3 activity) of WT SINAT5, in vitro ubiquitylation assay [1]: the C49S mutant protein was able to inhibit the self-ubiquitylation activity of the WT SINAT5 when present at a 5-10 fold excess

binding result [3]: binds
B1: SINAT5 (wildtype) (enzyme)
chain: T1 sequence
notes: GenBank AF480944 is printed for the gene; also called WT SINAT5; SINA of Arabidopsis thaliana 5
in vitro ubiquitylation of myc-NAC1 immunopurified from transgenic plants (Western blot) [2]: myc-NAC1 can be ubiquitylated by SINAT5 and this reaction is clearly dependent on E1, E2, and SINAT5 as an E3 ligase
